Patent US20230372551A1, “RADIOLABELED LIGANDS FOR TARGETED PET/SPECT IMAGING AND METHODS OF THEIR USE” (priority 2020, published 2023)
Non-standard residues stand in square brackets, D forms with d. Residues, ends and D or L forms follow the SMILES beside them. *: point of attachment. X1 = CC(=O)N(O)CCCCCNC(=O)CCC(=O)N(O)CCCCCNC(=O)CCC(=O)N(O)CCCCCNC(=O)CCN1C(=O)CC(*)C1=O

Columns and labels:
4T1 tumors = assay: in vivo; set-up: species or system BALB/c mice; conditions: mouse
Protocol: (§1) In vivo animal PET imaging and biodistribution. All injections were less than 200 μL with <10% EtOH in sterile PBS. PET images were obtained with the mice under anesthesia in an Inveon PET-CT at 4-144 h p.i. All images were analyzed using 3D Slicer (www.slicer.org). Dissections for ex vivo biodistribution were performed on mice after C02 asphyxiation or cervical dislocation while anesthetized at reported time points. Weight of the syringe prior to injection and after injection was used to determine the mass of injectate. Activity of the syringe prior to injection and after injection was used to determine the percent of injectate administered. The mass injected was corrected by the percent of radioactivity injected. Four to five aliquots (10 μL) were weighed and counted as internal standards for each study. All of the collected organs were counted using an automatic gamma counter (Wizard 3″, PerkinElmer, Waltham, MA). The total injected dose was found as the mass injected dose×fraction radioactivity injected×internal standard average counts/g. The percent injected dose (% ID) was determined as the counts for the tissue×100/total injected dose. The % ID/g was calculated as the % ID/tissue weight. The average and standard deviation of the % ID and % ID/g was determined using normal methods (n-1) for each set of mice.
(§2) 4T1 orthotopic BALB c mouse model. Animal studies were conducted according to MSKCC IACUC-approved animal protocol.
(§3) The 4T1 cells derived from spontaneous breast tumor in a BALB/c mouse (Karmanos Cancer Institute, Detroit, MI) were cultured in Dulbecco's modified Eagle's high glucose media with 10% FCS, 2 mM L-glutamine, penicillin, and streptomycin. The 4T1 cells derived from ATCC (Manassas, VA) were cultured in RPMI-1640 medium modified to contain 2 mM L-glutamine, 10 mM HEPES, 1 mM sodium pyruvate, 4.5 g/L glucose, 1.5 g/L NaHCO3, penicillin, and streptomycin.
(§4) The 4T1 cells described above were removed from the flasks containing the culture, concentrated, and resuspended in minimal media for cell counting. […]

in vivo [1] = assay: in vivo; set-up: species or system BALB/c mice; conditions: BALB/c, mouse, total radioactivity
Protocol: as §1, §2, §3, §4

in vivo [2] = conditions: male, athymic nude, mouse, 200 uCi (1.2 nmol), total radioactivity, ex vivo distribution
Protocol: All injections were less than 200 μL with <10% EtOH in sterile PBS. […] All images were analyzed using 3D Slicer (www.slicer.org). Dissections for ex vivo biodistribution were performed on mice after C02 asphyxiation or cervical dislocation while anesthetized at reported time points. Weight of the syringe prior to injection and after injection was used to determine the mass of injectate. Activity of the syringe prior to injection and after injection was used to determine the percent of injectate administered. The mass injected was corrected by the percent of radioactivity injected. Four to five aliquots (10 μL) were weighed and counted as internal standards for each study. All of the collected organs were counted using an automatic gamma counter (Wizard 3″, PerkinElmer, Waltham, MA). […] The percent injected dose (% ID) was determined as the counts for the tissue×100/total injected dose. The % ID/g was calculated as the % ID/tissue weight. The average and standard deviation of the % ID and % ID/g was determined using normal methods (n-1) for each set of mice.
Tissue samples were collected for additional ex vivo biodistribution studies to confirm the PET data results.

Question: With `CC(=O)N(O)CCCCCNC(=O)CCC(=O)N(O)CCCCCNC(=O)CCC(=O)N(O)CCCCCNC(=O)CCN1C(=O)CC(SC[C@@H](NC(=O)[C@@H](C)N)C(=O)N[C@H](CC(=O)O)C(=O)N[C@H](CC(=O)O)C(=O)N[C@H](CCC(N)=O)C(=O)N[C@H](CC(N)=O)C(=O)N2CCC[C@@H]2C(=O)N[C@H](Cc2c[nH]c3ccccc23)C(=O)N[C@H](CCCNC(=N)N)C(=O)N[C@H](C)C(=O)N[C@H](Cc2ccc(O)cc2)C(=O)N[C@H](CC(C)C)C(=O)N[C@H](CC(=O)O)C(=O)N[C@H](CC(C)C)C(=O)N[C@H](CC(C)C)C(=O)N[C@H](Cc2ccccc2)C(=O)N2CCC[C@@H]2C(=O)N[C@@H](C(=O)N[C@H](CC(=O)O)C(=O)N[C@@H](C(=O)N[C@H](CC(C)C)C(=O)N[C@H](CC(C)C)C(=O)N[C@H](CC(C)C)C(=O)N[C@H](CC(=O)O)C(=O)N[C@H](CC(C)C)C(=O)N[C@H](CC(C)C)C(=O)N[C@H](Cc2c[nH]c3ccccc23)C(=O)O)[C@H](C)O)[C@H](C)O)C1=O` (stereo partly drawn) [[^89Zr]Zr-DFO-cys-Var3pHLIP, metal not drawn] (H-[dA][dC](X1)[dD][dD][dQ][dN][dP][dW][dR][dA][dY][dL][dD][dL][dL][dF][dP][dT][dD][dT][dL][dL][dL][dD][dL][dL][dW]-OH; N-terminus and C-terminus assumed) as the compound, how does the “time until which tumor uptake continues to increase” value (4T1 tumors) read?
Answer: approximately 48 h

Question: What about the circulatory half-life (4T1 tumors; 5 ug) of the same compound?
Answer: long circulatory half-life

Question: And the tissue uptake (in vivo [1])?
Answer: ~15 %ID/g

Question: And the tissue uptake at 48 h (in vivo [2]; Femur)?
Answer: 1.4 ± 0.1 %ID/g

Question: And the tissue uptake at 48 h (in vivo [2]; Muscle)?
Answer: 0.6 ± 0.7 %ID/g
